Source: patent US20230190701A1, “Compounds for Treating Tauopathies and Restless Leg Syndrome and Methods of Using and Screening for Same” (The United States Government as Represented, priority 2020, published 2023)

Tests used:
Type in all cases: biochemical
[1] = target: T1, PTPRD D1 phosphatase (SEQ ID NO: 1) (Homo sapiens, UniProt P23468); assay: Orthophosphate release assay (malachite green/molybdate) with phosphopeptide substrates; conditions: for PTPRD's activity in dephosphorylating CDK5 phosphopeptide (positive allosteric modulation): pY15 CDK5 phosphopeptide, flavonoid 10^−4 M (FIG. 7); for PTPRD's activity in dephosphorylating CDK5 phosphopeptide (positive allosteric modulation) / PTPRD's activity in dephosphorylating GSK3 phosphopeptide (positive allosteric modulation): vs vehicle; for PTPRD's activity in dephosphorylating GSK3 phosphopeptide (positive allosteric modulation): pYGSK3 phosphopeptide, flavonoid 10^−4 M (FIG. 8); for normalized rates of liberation of orthophosphate from pY15CDK5 alanine substitution mutants vs wildtype: FIG. 5, Glu-substitution mutants (1, 4, 6) reductions, Lys-substitution mutants (2, 7) increases
T1 construct: His6 (N); made in house; host or cells: E. coli (vector optimized for E. coli codon use)
T1 sequence (P23468 with tags, fused parts or gaps): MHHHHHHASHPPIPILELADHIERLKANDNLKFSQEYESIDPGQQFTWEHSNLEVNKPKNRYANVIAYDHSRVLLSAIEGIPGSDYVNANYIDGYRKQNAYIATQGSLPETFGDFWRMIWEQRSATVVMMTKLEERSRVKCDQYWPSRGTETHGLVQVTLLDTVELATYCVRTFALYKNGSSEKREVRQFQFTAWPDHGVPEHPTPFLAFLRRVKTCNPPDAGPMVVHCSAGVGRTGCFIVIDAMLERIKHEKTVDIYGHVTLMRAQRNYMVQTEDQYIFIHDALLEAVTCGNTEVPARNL
Source text: The following examples utilized phosphatase protein produced from a His-tagged D1 phosphatase domain synthesized expression vector optimized for E. coli codon use (SEQ ID NO: 1). This protein was purified to >95% purity and was active in hydrolyzing pNPP substrate (FIG. 1). Human wildtype and mutant phospho- and dephospho-GSK3β/GSK3α and CDK5 peptides were synthesized (Pierce/ThermoFisher, SEQ ID NOs: 2-12) and control END(pY)INASL peptide (Promega, SEQ ID NO: 13) was purchased. Flavonoids were purchased from Thermo-Fisher, Aldrich, Cayman Chemical and AK Scientific. Purities were >95%.
Orthophosphate release assays (Promega V2471) used Malachite green and molybdate with spectrophotometric detection of liberated free orthophosphate from test phosphopeptides compared to control and mutant peptides with assessments for the times indicated. Reactions were carried out in a half-area 96-well plate, with three wells dedicated for each time point. To each experimental well, we added a mixture of 18 μL of ultrapure water, 25 μL of running buffer, 1 μL of a 10 mM DMSO solution of the desired peptide, and 1 μL of DMSO containing a desired concentration of flavonoid, or 1 μL DMSO for control experiments. The supplied molybdate dye mixture (50 μL) was added at t=0, followed by 5 μL of a 1:100 dilution of enzyme in the aforementioned dilution buffer. Other wells were initiated via the addition of 5 μL of the diluted enzyme mixture@t=0 and terminated at the desired timepoints by addition of 50 μL of the dye solution. Wells were read@605 nm.

[2] = target: T1, PTPRD D1 phosphatase (SEQ ID NO: 1); assay: as above; conditions: peptide as substrate; FIG. 1
human PTPRD phosphatase = target: T2, human PTPRD phosphatase (Homo sapiens, UniProt P23468); assay: pNPP dephosphorylation to p-nitrophenolate (405 nm); conditions: FIG. 4; peptide 4×10^−4 M, pNPP 1.8×10^−5M
T2 construct: His6 (N); made in house; host or cells: E. coli (vector optimized for E. coli codon use)
T2 sequence (P23468 with tags, fused parts or gaps): T1 sequence (P23468 with tags, fused parts or gaps)
Method: pNPP dephosphorylation to p-nitrophenolate: Triplicate assays were used for human PTPRD phosphatase, pNPP substrate and spectrophotometric 405 nm detection of the dephosphorylation product of these enzyme's activities using a Spectromax plate reader. Controls used 5×10^−5M 7-BIA with 18 min incubations as described. See G. R. Uhl et al., “Cocaine reward is reduced by decreased expression of receptor-type protein tyrosine phosphatase D (PTPRD) and by a novel PTPRD antagonist.” Proc Natl Acad Sci USA 115, 11597-11602 (2018). For assays determining the effect of flavonoids on pNPP hydrolysis, a 96 well half-area plate was prepared by first filling each well to be tested with 18 μL of 50 μM pNPP and 25 μL of running buffer (43.4 μM HEPES (pH 7.4), 2.2 μM dithiothreitol, 0.44% acetylated bovine serum albumin, 22.2 μM NaCl, 4.4 μM EDTA), and 2 μL of DMSO containing the desired concentration of flavonoid and/or peptide. PTPRD1 was diluted 1:50 in a dilution buffer (22.9 μM pH 7.4 HEPES, 1% acetylated bovine serum albumin, 4.6 μM dithiothreitol). At the zero time point, 5 uL of this solution was added to each well, and the optical density was measured in 36 second intervals at 405 nm. Results were plotted and the slopes of the linear region were fit. All experiments were performed three times with three wells dedicated to each experimental condition in each experiment.

Row | PTPRD's activity in dephosphorylating CDK5 phosphopeptide (positive allosteric modulation) [1] | PTPRD's activity in dephosphorylating GSK3 phosphopeptide (positive allosteric modulation) [1] | competition for PTPRD phosphatase's hydrolysis of pNPP (human PTPRD phosphatase) | Compound | normalized rates of liberation of orthophosphate from pY15CDK5 alanine substitution mutants vs wildtype [1] | other results
1 | trend-level | significant | – | O=c1c(O)c(-c2ccc(O)c(O)c2)oc2cc(O)ccc12 [fisetin] | – | –
2 | trend-level | significant | – | O=c1c(O)c(-c2ccc(O)cc2O)oc2cc(O)cc(O)c12 [morin] | – | –
3 | trend-level | significant | – | O=c1c(O)c(-c2cc(O)c(O)c(O)c2)oc2cc(O)cc(O)c12 [myricetin] | – | –
4 | – | – | competes | QLVRGEPNVS-pY-ICSRYYRAPE [GSK3 phosphopeptide] | – | liberation of orthophosphate from phosphopeptide by PTPRD's phosphatase [2]: substantial liberation of orthophosphate
5 | – | – | inactive | QLVRGEPNVSYICSRYYRAPE (QLVRGEPNVSSYICSRYYRAPE) [dephospho GSK3β, GSK3α peptide, GSK3β/α wildtype dephosphopeptide] | – | –
6 | – | – | – | YAKLAKIGAGT-pY-GTVFKAKN [mutant 6] | nominally-significant (6) reductions in activity | –
7 | – | – | – | YEALEAIGEGT-pY-GTVFKAKN [mutant 7] | nominally-significant increases in activity | –
8 | – | – | – | YEALEKIGEGT-pY-GTVFKAKN [mutant 4] | trends | –
9 | – | – | – | YEKLEAIGEGT-pY-GTVFKAKN [mutant 2] | nominally-significant increases in activity | –
10 | – | – | – | YEKLEKIGAGT-pY-GTVFKAKN [mutant 1] | trends | –
11 | – | – | competes | YEKLEKIGEGT-pY-GTVFKAKN [CDK5 phosphopeptide] | – | liberation of orthophosphate from phosphopeptide by PTPRD's phosphatase [2]: rates similar to those found for the generic positive control substrate
12 | – | – | inactive | YEKLEKIGEGTYGTVFKAKN [dephospho CDK5 peptide, CDK5 wildtype dephosphopeptide] | – | –

Row | Compound | PTPRD's activity in dephosphorylating CDK5 phosphopeptide (positive allosteric modulation) [1] | PTPRD's activity in dephosphorylating GSK3 phosphopeptide (positive allosteric modulation) [1] | competition for PTPRD phosphatase's hydrolysis of pNPP (human PTPRD phosphatase) | normalized rates of liberation of orthophosphate from pY15CDK5 alanine substitution mutants vs wildtype [1] | other results
13 | O=c1c(O)c(-c2ccc(O)c(O)c2)oc2cc(O)cc(O)c12 [quercetin] | increased | increased | – | – | stimulation of orthophosphate liberation from phosphopeptides by PTPRD phosphatase, dose-response ([1]; FIG. 9, pYGSK3 and pYCDK5 phosphopeptides): active at micromolar concentrations
